± gives the uncertainty stated by the source.
Test: protein stability index of a GFP-peptide fusion (yeast GPS) (PSI 1-4); higher = more stable; sorted into four equal gates, so the index is relative within each strain
Outline: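 Each library plasmid carries Cherry plus GFP with a tiled 17-residue yeast protein peptide fused downstream, and the pooled library was carried in yeast. Mid-log cultures in leucine-free medium were sorted into four equal gates by GFP/Cherry ratio. Reads from Illumina sequencing of PCR-amplified plasmids from each gate were assigned to strains by barcodes. Per peptide, the protein stability index was computed as the summed products of gate read frequency and gate number.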

| Sequence | protein stability index (doa10∆) | protein stability index (pdr5∆) | protein stability index (san1∆) | protein stability index (ubr1∆) |
| --- | --- | --- | --- | --- |
| SVPEGTIVSNVEEKPGD [RPL2A] | 3.23 ± 0.1 | 3.02 ± 0.082 | 3.39 ± 0.059 | 3.39 ± 0.11 |
| NGGSEEEITCALDYLIP [MED7] | 3.45 ± 0.1 | 3.45 ± 0.13 | 3.44 ± 0.098 | 3.35 ± 0.09 |
| FVPVPSLAGFHKVQTKL [RPS7A] | 2.53 ± 0.075 | 2.71 ± 0.081 | 2.52 ± 0.073 | 2.75 ± 0.088 |
| IQSKRLRNKIAGYTTHL [RPS17A] | 3.16 ± 0.1 | 3.41 ± 0.088 | 3.23 ± 0.065 | 3.36 ± 0.072 |
| MAKDNLTNLLSQLNIQL [SRP72] | 2.99 ± 0.077 | 3.13 ± 0.084 | 3.15 ± 0.074 | 2.96 ± 0.061 |
| RKASCIWLLSYIQYLGH [ECM29] | 1.88 ± 0.06 | 2.15 ± 0.046 | 2.32 ± 0.054 | 1.96 ± 0.036 |
| EVAKKRSRKTVKAQRPI [RPL24A] | 3.12 ± 0.097 | 3.29 ± 0.11 | 3.18 ± 0.15 | 3.17 ± 0.16 |
| VFGASDKQAEGTPLFTF [YOR098C/NUP1] | 2.83 ± 0.074 | 2.86 ± 0.087 | 3 ± 0.097 | 3.21 ± 0.081 |
| LKLSQAFGSSATDISGE [YJR042W/NUP85] | 2.76 ± 0.065 | 2.05 ± 0.067 | 2.56 ± 0.059 | 2.14 ± 0.048 |
| GEEDAVDLLLEIESIDK [RPN1] | 3.25 ± 0.11 | 3.08 ± 0.14 | 3.25 ± 0.08 | 3.33 ± 0.057 |
| RCFSCGKVVGDKWESYL [RPB10] | 1.73 ± 0.14 | 2.11 ± 0.1 | 1.98 ± 0.16 |  |
| TKCSTVVKASELDQFWQ [SRP14] | 2.17 ± 0.041 | 2.14 ± 0.047 | 2.04 ± 0.082 | 1.72 ± 0.03 |
| YKMVQEQLSKQRDLYKR [SMC2] | 3.1 ± 0.097 | 3.03 ± 0.087 | 2.45 ± 0.16 | 3.09 ± 0.063 |
| QGRRLGESIMSEEPTDF [MCD1] | 3.21 ± 0.11 | 3.36 ± 0.13 | 3.32 ± 0.069 | 3.23 ± 0.092 |
| QQNIKFRRDFLLREYDI [YJL039C/NUP192] | 2.5 ± 0.058 | 2.57 ± 0.055 | 2.9 ± 0.045 | 2.63 ± 0.037 |
| SARSSVHESLVTQSNIL [SRB8] | 2.77 ± 0.078 | 3.04 ± 0.076 | 2.81 ± 0.061 | 2.83 ± 0.086 |
| PSRRERRREQTTYSVDD [ISW2] | 2.65 ± 0.26 | 3 ± 0.062 | 3.22 ± 0.17 | 2.35 ± 0.14 |
| GQFVTLGCTLVTLLANV [RMP1] | 2.8 ± 0.11 | 2.89 ± 0.11 | 2.73 ± 0.1 | 2.58 ± 0.048 |
| VKGDLLQEAIDFAQKEI [PRE10] | 2.9 ± 0.076 | 2.84 ± 0.066 | 3.2 ± 0.054 | 2.9 ± 0.048 |
| DYLTLNKVVVNLNDAGL [RPN2] | 2.73 ± 0.091 | 3.02 ± 0.08 |  | 3.16 ± 0.06 |
| FKAMEDVIAWKNVLANS [ITC1] |  | 2.95 ± 0.16 | 3.55 ± 0.078 | 3.49 ± 0.16 |
| GLTNWAAAYATGLLIAR [RPL5] | 1.39 ± 0.18 | 1.26 ± 0.084 | 1.14 ± 0.13 | 1.1 ± 0.027 |
| HFTEIKLNKVDKNELQQ [SIR3] | 2.86 ± 0.056 | 2.88 ± 0.056 | 3 ± 0.04 | 3.07 ± 0.049 |
| NTKEEFAAAPNDTSSGT [SNF5] | 2.97 ± 0.067 | 3.06 ± 0.062 | 2.96 ± 0.055 | 2.9 ± 0.062 |
| DKQDGTAKPAFSFGAKP [YJL041W/NSP1] | 3.24 ± 0.087 | 3.29 ± 0.077 | 3.22 ± 0.057 | 3.35 ± 0.086 |
| LSESPVDFEKFETFLVD [SIN4] | 3.03 ± 0.12 | 2.73 ± 0.21 |  | 2.76 ± 0.21 |
| ESENFKIIALQPNEISF [RGR1] | 2.39 ± 0.091 | 2.55 ± 0.11 | 2.54 ± 0.084 | 2.49 ± 0.075 |

| Sequence | protein stability index (doa10∆) | protein stability index (pdr5∆) | protein stability index (san1∆) | protein stability index (ubr1∆) |
| --- | --- | --- | --- | --- |
| QVSEVDPGRYNKVCRIE [RPB8] | 3.07 ± 0.13 | 3.04 ± 0.081 | 2.65 ± 0.084 | 2.93 ± 0.06 |
| KVGQFDQVLNLCLTEFE [FAS1] | 2.75 ± 0.076 | 2.97 ± 0.062 | 2.73 ± 0.06 | 3.11 ± 0.038 |
| RVGVVSILEAGDSDILT [RPL30] | 3.1 ± 0.057 | 2.97 ± 0.074 | 2.98 ± 0.07 | 3.03 ± 0.058 |
| TNRHTLALETVLIKMVK [SIR3] | 2.84 ± 0.11 | 2.86 ± 0.072 | 2.61 ± 0.069 | 2.88 ± 0.054 |
| PFSLTYVRTEETDGKHG [YMR129W/POM152] | 3.13 ± 0.14 | 3.28 ± 0.096 | 3 ± 0.074 | 3.19 ± 0.069 |
| NLATWYHSAGGRDKHAL [SSN3] | 3.49 ± 0.17 | 3.54 ± 0.15 | 3.16 ± 0.11 | 3.42 ± 0.08 |
| VMLKGIVTALLESDVNI [SRP54] | 1.3 ± 0.054 | 1.22 ± 0.067 | 1.18 ± 0.14 | 1.16 ± 0.066 |
| SNYAASNSMDRSSSASN [SWI1] | 2.79 ± 0.14 | 2.7 ± 0.089 | 2.88 ± 0.07 | 2.84 ± 0.093 |
| YLMDSKNVRTRIKLATT [RRI1] | 2.09 ± 0.08 | 2.07 ± 0.073 | 1.61 ± 0.099 | 1.99 ± 0.061 |
| RRLAFLGIKVAELTGDS [BRR2] |  | 2.24 ± 0.19 | 2.71 ± 0.16 |  |
| SRTLILSILNEIKKVTQ [SIN4] | 3.05 ± 0.12 | 2.56 ± 0.15 | 2.27 ± 0.11 | 2.82 ± 0.084 |
| EGNQIIVFVHSRKETSR [BRR2] | 2.01 ± 0.055 | 2.28 ± 0.054 | 1.8 ± 0.072 | 2.48 ± 0.05 |
| CLENARSQISEKDAKIN [SIR4] | 3.09 ± 0.078 | 3.23 ± 0.081 | 3.13 ± 0.066 | 2.98 ± 0.064 |
| GANDLGFTASVSNQENA [MED1] | 3.06 ± 0.083 | 3.17 ± 0.11 | 2.93 ± 0.078 | 3.39 ± 0.11 |
| CRVCSSHTGLIRKYGLN [RPS29A] | 1.5 ± 0.13 | 1.53 ± 0.1 | 1.48 ± 0.15 | 1.59 ± 0.069 |
| AKLHRISPKIWCAGAGT [PUP1] | 1.93 ± 0.049 | 1.87 ± 0.046 | 1.85 ± 0.056 | 1.88 ± 0.042 |
| MVDVEEKSQEVEYVDPT [RPN7] | 3.06 ± 0.22 |  |  | 3.38 ± 0.16 |
| FNLISNAGTEKEKESKK [YLR335W/NUP2] | 3.41 ± 0.077 | 3.35 ± 0.063 | 3.44 ± 0.044 | 3.45 ± 0.068 |
| GDYDSHDISRYVRAKFL [PRP8] | 2.08 ± 0.077 | 2.11 ± 0.086 | 1.66 ± 0.16 | 1.43 ± 0.055 |
| LEYMNTARINNRRLFKK [RRI2] | 2.5 ± 0.08 | 2.21 ± 0.072 | 2.3 ± 0.083 | 2.5 ± 0.075 |
| LSEFGIKKMLHLVWMKG [YCS4] | 3.17 ± 0.17 | 3.47 ± 0.11 | 2.31 ± 0.15 | 3.29 ± 0.17 |
| LRADKLYEKLKQEIMMS [ISW2] | 1.63 ± 0.14 | 1.38 ± 0.18 | 1.78 ± 0.25 | 1.41 ± 0.15 |
| CAACHSLDRVAWRTLVG [CYT1] | 1.29 ± 0.052 | 1.32 ± 0.047 | 1.34 ± 0.1 | 1.26 ± 0.042 |
| AASAAGYDRHITIFSPE [SCL1] | 2.86 ± 0.11 | 2.76 ± 0.075 | 2.87 ± 0.064 | 2.95 ± 0.051 |
| KTQEYYTQYTNDYLEKH [CDC53] | 2.99 ± 0.062 | 2.42 ± 0.067 | 2.96 ± 0.049 | 3.22 ± 0.062 |
| VYFGDENKVMLPRCSKE [RRI2] | 3.24 ± 0.091 | 3.37 ± 0.089 | 3.11 ± 0.074 | 3.13 ± 0.063 |
